# Reference: PMC6044951
# B1: BcsA-BcsB (Cereibacter sphaeroides 2.4.1) (protein)
# chain: MTVRAKARSPLRVVPVLLFLLWVALLVPFGLLAAAPVAPSAQGLIALSAVVLVALLKPFADKMVPRFLLLSAASMLVMRYWFWRLFETLPPPALDASFLFALLLFAVETFSISIFFLNGFLSADPTDRPFPRPLQPEELPTVDILVPSYNEPADMLSVTLAAAKNMIYPARLRTVVLCDDGGTDQRCMSPDPELAQKAQERRRELQQLCRELGVVYSTRERNEHAKAGNMSAALERLKGELVVVFDADHVPSRDFLARTVGYFVEDPDLFLVQTPHFFINPDPIQRNLALGDRCPPENEMFYGKIHRGLDRWGGAFFCGSAAVLRRRALDEAGGFAGETITEDAETALEIHSRGWKSLYIDRAMIAGLQPETFASFIQQRGRWATGMMQMLLLKNPLFRRGLGIAQRLCYLNSMSFWFFPLVRMMFLVAPLIYLFFGIEIFVATFEEVLAYMPGYLAVSFLVQNALFARQRWPLVSEVYEVAQAPYLARAIVTTLLRPRSARFAVTAKDETLSENYISPIYRPLLFTFLLCLSGVLATLVRWVAFPGDRSVLLVVGGWAVLNVLLVGFALRAVAEKQQRRAAPRVQMEVPAEAQIPAFGNRSLTATVLDASTSGVRLLVRLPGVGDPHPALEAGGLIQFQPKFPDAPQLERMVRGRIRSARREGGTVMVGVIFEAGQPIAVRETVAYLIFGESAHWRTMREATMRPIGLLHGMARILWMAAASLPKTARDFMDEPARRRRRHEEPKEKQAHLLAFGTDFSTEPDWAGELLDPTAQVSARPNTVAWGSN
# Substrate: O=c1ccn([C@@H]2O[C@H](CO[P@@](=O)(O)O[P@@](=O)(O)O[C@H]3O[C@H](CO)[C@@H](O)[C@H](O)[C@H]3O)[C@@H](O)[C@H]2O)c(=O)[nH]1
# Assay: purified protein
# Details: 30 °C, Michaelis-Menten fit
protein,measurement,value
B1,Km,0.34 ± 0.07 mM
same,kcat,0.43 ± 0.17 s⁻¹
